± gives the uncertainty stated by the source.
B1: library; numbered along this chain (parent)
chain: MEVVDPQQLGMFTEGELMSVGMDTFIHRIDSTEVIYQPRRKRAKLIGKYLMGDLLGEGSYGKVKEVLDSETLCRRAVKILKKKKLRRIPNGEANVKKEIQLLRRLRHKNVIQLVDVLYNEEKQKMYMVMEYCVCGMQEMLDSVPEKRFPVCQAHGYFCQLIDGLEYLHSQGIVHKDIKPGNLLLTTGGTLKISDLGVAEALHPFAADDTCRTSQGSPAFQPPEIANGLDTFSGFKVDIWSAGVTLYNITTGLYPFEGDNIYKLFENIGKGSYAIPGDCGPPLSDLLKGMLEYEPAKRFSIRQIRQHSWFRKKHPPAEAPVPIPPSPDTKDRWRSMTVVPYLEDLHGADEDEDLFDIEDDIIYTQDFTVPGQVPEEEASHNGQRRGLPKAVCMNGTEAAQLSTKSRAEGRAPNPARKACSASSKIRRLSACKQQ

Variants of: B1
Experiment: STK11 functional score (HeLa growth suppression), rescaled enrichment; synonymous median = 1, nonsense median = 0 (normalised score)
Details: with HeLa; variant type: missense
Outline: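 HeLa cells carrying an AAVS1 landing pad received codon-optimised STK11 libraries made by codon randomisation (POPCode), integrated by Bxb1, with three regions each transfected three times. Integrants that were BFP-negative and mCherry-positive were sorted by FACS 4–5 days after electroporation and then grown for about two weeks. Tiled amplicons from gDNA were sequenced on NextSeq at ~2 million reads per tile. The functional score is a wild-type-corrected log ratio of post- to pre-selection counts, rescaled to the synonymous and nonsense medians, merged across codons and replicate transfections, and given a bootstrapped error.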

K124A and K191S are within error of each other in STK11 functional score: 1.13 ± 0.59 for the first, 1.17 ± 0.19 for the second.

H379Y and H379K are within error of each other in STK11 functional score: 1.39 ± 0.47 for the first, 1.37 ± 0.22 for the second.

Going from H379S to G288L, the STK11 functional score falls from 1.55 ± 0.27 to 0.221 ± 0.13.

G288V and I274F are within error of each other in STK11 functional score: 0.518 ± 0.45 for the first, 1.13 ± 0.43 for the second.

I274G and H306L are within error of each other in STK11 functional score: 1.05 ± 0.26 for the first, 0.85 ± 0.59 for the second.

H306R and V110Y are within error of each other in STK11 functional score: 0.628 ± 0.086 for the first, 0.623 ± 0.43 for the second.

I248E and S428G are within error of each other in STK11 functional score: 0.873 ± 0.49 for the first, 1.6 ± 0.32 for the second.

C391N and K388G are within error of each other in STK11 functional score: 0.483 ± 0.73 for the first, 1.31 ± 0.29 for the second.

K388Q and F234W are within error of each other in STK11 functional score: 1.21 ± 0.43 for the first, 1.44 ± 0.21 for the second.

M125I and D162L are within error of each other in STK11 functional score: 1.11 ± 0.19 for the first, 1.04 ± 0.23 for the second.

Compared with D162S, L245K is lower in STK11 functional score: 1.26 ± 0.13 for the first, 0.475 ± 0.15 for the second.

First: L245Q
Second: L245Y
The STK11 functional score of the first is higher: 0.383 ± 0.19 for the first, -0.0275 ± 0.097 for the second.

Q112T and Q112G are within error of each other in STK11 functional score: 1.27 ± 0.39 for the first, 0.967 ± 0.13 for the second.

Q112P and V150P are within error of each other in STK11 functional score: 1.24 ± 0.27 for the first, 0.992 ± 0.14 for the second.

Compared with A93V, P275L is higher in STK11 functional score: 0.101 ± 0.08 for the first, 0.807 ± 0.099 for the second.

First: V34R
Second: P179E
The STK11 functional score of the first is higher: 0.822 ± 0.17 for the first, 0.0456 ± 0.13 for the second.

Compared with W239R, H154Y is higher in STK11 functional score: 0.273 ± 0.15 for the first, 1.26 ± 0.12 for the second.

H154N and H154V are within error of each other in STK11 functional score: 0.196 ± 0.14 for the first, 0.314 ± 0.077 for the second.

E121M and F255R are within error of each other in STK11 functional score: 0.84 ± 0.28 for the first, 0.632 ± 0.2 for the second.

First: F255I
Second: M139S
The STK11 functional score of the first is higher: 1.36 ± 0.38 for the first, 0.816 ± 0.1 for the second.

Going from N90P to R147E, the STK11 functional score falls from 1.08 ± 0.3 to -0.0954 ± 0.2.

First: G187P
Second: R87L
The STK11 functional score of the first is higher: 1.49 ± 0.12 for the first, 1.18 ± 0.15 for the second.

Going from L72N to A318P, the STK11 functional score rises from 0.264 ± 0.095 to 1.59 ± 0.26.

First: A318V
Second: V133E
The STK11 functional score of the first is higher: 1.11 ± 0.093 for the first, 0.588 ± 0.28 for the second.

Compared with S401L, W332C is lower in STK11 functional score: 1.51 ± 0.28 for the first, 0.361 ± 0.46 for the second.

W332V and W332G are within error of each other in STK11 functional score: 1.59 ± 0.27 for the first, 1.55 ± 0.14 for the second.

E130M and E130W are within error of each other in STK11 functional score: 0.0424 ± 0.11 for the first, -0.0647 ± 0.079 for the second.

First: E130K
Second: E130L
The STK11 functional score of the first is higher: 1.36 ± 0.14 for the first, 0.308 ± 0.083 for the second.

Going from K416R to K416L, the STK11 functional score falls from 1.54 ± 0.16 to 0.986 ± 0.17.

Compared with V114C, D350A is higher in STK11 functional score: 0.202 ± 0.086 for the first, 0.867 ± 0.29 for the second.

L50G and L50H are within error of each other in STK11 functional score: 0.949 ± 0.24 for the first, 1.08 ± 0.14 for the second.

N380F and S271F are within error of each other in STK11 functional score: 1.06 ± 0.12 for the first, 1.03 ± 0.34 for the second.

Compared with C278Y, P281V is higher in STK11 functional score: 0.449 ± 0.12 for the first, 1.19 ± 0.14 for the second.

Going from A417V to A417F, the STK11 functional score rises from 0.845 ± 0.15 to 1.15 ± 0.13.

Going from G56A to K96G, the STK11 functional score rises from 0.838 ± 0.097 to 1.31 ± 0.19.

P321Y and S240E are within error of each other in STK11 functional score: 0.641 ± 0.72 for the first, 1.52 ± 0.24 for the second.

P319D and P319H are within error of each other in STK11 functional score: 1.52 ± 0.16 for the first, 1.16 ± 0.43 for the second.

V20G and L54K are within error of each other in STK11 functional score: 1.43 ± 0.12 for the first, 1.61 ± 0.23 for the second.

L54A and T186A are within error of each other in STK11 functional score: 0.975 ± 0.29 for the first, 1.16 ± 0.25 for the second.

I360N and Q100E are within error of each other in STK11 functional score: 1.11 ± 0.67 for the first, 1.25 ± 0.76 for the second.

I260S and T13F are within error of each other in STK11 functional score: 1.44 ± 0.32 for the first, 1.25 ± 0.15 for the second.

E120Q and K262I are within error of each other in STK11 functional score: 1.16 ± 0.49 for the first, 0.763 ± 0.14 for the second.

L17D and Y60S are within error of each other in STK11 functional score: 1.7 ± 0.12 for the first, 1.48 ± 0.25 for the second.

G91L and L183H are within error of each other in STK11 functional score: 1.54 ± 0.13 for the first, 1.43 ± 0.24 for the second.

A205H and A205R are within error of each other in STK11 functional score: 1.33 ± 0.13 for the first, 1.23 ± 0.32 for the second.

A205Q and D115M are within error of each other in STK11 functional score: 1.33 ± 0.29 for the first, 1.06 ± 0.73 for the second.

D365P and D365W are within error of each other in STK11 functional score: 1.56 ± 0.18 for the first, 1.32 ± 0.24 for the second.

Compared with I99S, I99E is higher in STK11 functional score: 0.869 ± 0.37 for the first, 1.65 ± 0.16 for the second.

Compared with I99Q, S142P is higher in STK11 functional score: 0.527 ± 0.62 for the first, 1.34 ± 0.13 for the second.

First: S142G
Second: E70G
The STK11 functional score of the first is higher: 1.62 ± 0.16 for the first, 0.582 ± 0.42 for the second.

Going from L85G to A420V, the STK11 functional score rises from 0.21 ± 0.094 to 1.52 ± 0.21.

Going from A206I to L164H, the STK11 functional score falls from 1.46 ± 0.47 to 0.0804 ± 0.11.

Going from L164F to R39W, the STK11 functional score rises from -0.208 ± 0.089 to 1.22 ± 0.49.

R39V and R39L are within error of each other in STK11 functional score: 1.22 ± 0.14 for the first, 1.45 ± 0.17 for the second.

Q305V and K269Q are within error of each other in STK11 functional score: 1.59 ± 0.25 for the first, 1.5 ± 0.53 for the second.

K269I and K269H are within error of each other in STK11 functional score: 1.28 ± 0.17 for the first, 1.49 ± 0.22 for the second.

L341V and L341M are within error of each other in STK11 functional score: 1.33 ± 0.26 for the first, 1.63 ± 0.46 for the second.

T185G and I322T are within error of each other in STK11 functional score: 0.548 ± 0.091 for the first, 0.984 ± 0.58 for the second.

P387W and P387H are within error of each other in STK11 functional score: 1.62 ± 0.29 for the first, 1.45 ± 0.26 for the second.

R384S and R384T are within error of each other in STK11 functional score: 1.53 ± 0.26 for the first, 1.15 ± 0.46 for the second.

Q123A and Q123T are within error of each other in STK11 functional score: 1.11 ± 0.28 for the first, 1.27 ± 0.65 for the second.

Q123V and L427V are within error of each other in STK11 functional score: 0.961 ± 0.2 for the first, 1.21 ± 0.27 for the second.

L427T and L427F are within error of each other in STK11 functional score: 1.59 ± 0.16 for the first, 1.31 ± 0.23 for the second.

L427C and E2V are within error of each other in STK11 functional score: 0.695 ± 0.25 for the first, 1.36 ± 0.83 for the second.

S299G and I361M are within error of each other in STK11 functional score: 1.18 ± 0.52 for the first, 1.09 ± 0.39 for the second.

Q137G and E351Q are within error of each other in STK11 functional score: 0.734 ± 0.14 for the first, 1.28 ± 0.6 for the second.

First: K108G
Second: P221D
The STK11 functional score of the first is higher: 0.95 ± 0.13 for the first, 0.00575 ± 0.14 for the second.

Q371G and Q371M are within error of each other in STK11 functional score: 1.03 ± 0.36 for the first, 1.46 ± 0.33 for the second.

G242D and G242M are within error of each other in STK11 functional score: 0.0263 ± 0.13 for the first, -0.0974 ± 0.093 for the second.

G242H and G242S are within error of each other in STK11 functional score: 0.0155 ± 0.32 for the first, 0.0147 ± 0.098 for the second.

First: T244G
Second: T244W
The STK11 functional score of the first is lower: 0.014 ± 0.099 for the first, 0.257 ± 0.092 for the second.

K48W and S59W are within error of each other in STK11 functional score: 0.798 ± 0.087 for the first, 0.719 ± 0.1 for the second.

E375F and E375H are within error of each other in STK11 functional score: 1.29 ± 0.29 for the first, 1.24 ± 0.57 for the second.

E375V and E375Q are within error of each other in STK11 functional score: 1.27 ± 0.12 for the first, 1.12 ± 0.61 for the second.

E375G and E375S are within error of each other in STK11 functional score: 1.49 ± 0.32 for the first, 1.39 ± 0.21 for the second.

Q433R and K175T are within error of each other in STK11 functional score: 0.937 ± 0.57 for the first, 1.07 ± 0.18 for the second.

L167V and E65P are within error of each other in STK11 functional score: 1.15 ± 0.2 for the first, 0.657 ± 0.32 for the second.

Compared with M335L, L140Q is higher in STK11 functional score: 1.03 ± 0.18 for the first, 1.54 ± 0.16 for the second.

First: L140N
Second: I177F
The STK11 functional score of the first is lower: 0.0882 ± 0.09 for the first, 0.54 ± 0.074 for the second.

Going from D330E to N259H, the STK11 functional score rises from 0.786 ± 0.24 to 1.66 ± 0.14.

V243I and G227W are within error of each other in STK11 functional score: 1.42 ± 0.14 for the first, 1.29 ± 0.15 for the second.

G227E and M129L are within error of each other in STK11 functional score: 0.563 ± 0.19 for the first, 0.635 ± 0.09 for the second.

E145R and P314S are within error of each other in STK11 functional score: 1.21 ± 0.43 for the first, 1.33 ± 0.16 for the second.

P314Y was tested, and the STK11 functional score was 0.95 ± 0.15.

Reference: the supplement of paper PMC12338614
